Test results reported in paper PMC5607241, “Chimeric 14-3-3 proteins for unraveling interactions with intrinsically disordered partners” (Scientific Reports, 2017).
Residue numbers refer to the chain shown, from its start. “And” between values parts separate entries of the source, which are not always exact repeats. Equal entries are not always repeated. Where no end group is shown, it is not given here. [ ]: non-standard residue; d: D form. pS = N[C@@H](COP(=O)(O)O)C(=O)O

What was measured:
[1] = biological target: T1, 14-3-3σ∆C mutant Clu3 (core of the chimeras) (human, UniProt P31947 1-231, 75EEK77 → 75AAA77); experiment: crystal structure; pCH3 (bi-directional peptide swap), 0.1 M bis-Tris-propane pH 6.5, 0.2 M (NH4)2SO4, 25% PEG 3350, 20 °C, 3.9 Å, PDB 5OMA; conditions: both partners purified
T1 construct: three extra residues left at the N terminus after 3C cleavage of the hexahistidine tag; 14-3-3σ, human, C-terminally truncated (14-3-3σ∆C, residues 1-231), surface-entropy reduction mutant Clu3; Stood in the structures joined on one chain with the peptides (m1-m3); written as a molecule of its own for the pairs core/peptide; also called 14-3-3σ Clu3; 14-3-3σ∆C-Clu3; source: E. coli, as the …
T1 sequence: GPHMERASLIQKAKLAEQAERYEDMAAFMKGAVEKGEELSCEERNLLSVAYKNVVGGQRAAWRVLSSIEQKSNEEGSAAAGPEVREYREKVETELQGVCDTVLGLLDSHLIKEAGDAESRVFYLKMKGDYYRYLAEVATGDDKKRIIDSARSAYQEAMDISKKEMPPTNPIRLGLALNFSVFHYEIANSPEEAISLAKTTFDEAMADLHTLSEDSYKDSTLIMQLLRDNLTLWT

[2] = biological target: the molecule itself; experiment: SEC; analytical SEC, calibrated Superdex 200 Increase 10/300, 20 mM Tris-HCl pH 7.6, 150 mM NaCl, 0.1 mM EDTA, 3 mM β-mercaptoethanol, 1.2 mL/min; samples pre-incubated 30 min at room temperature; hydrodynamic radii from column calibration
[3] = biological target: T1, 14-3-3σ∆C mutant Clu3 (core of the …); experiment: crystal structure; pCH2 (mono-directional peptide swap), 0.1 M bis-Tris pH 6.5, 2 M (NH4)2SO4, 20 °C, 3.2 Å, PDB 5OM0; conditions: both partners purified
[4] = biological target: the molecule itself; experiment: as above
[5] = biological target: the molecule itself; experiment: crystal structure; pCH3 (bi-directional peptide swap), 0.1 M bis-Tris-propane pH 6.5, 0.2 M (NH4)2SO4, 25% PEG 3350, 20 °C, 3.9 Å, PDB 5OMA

B1: phosphorylated linker GSGpSLRR of pCH3 (peptide)
peptide: GSG[pS]LRR
notes: GSGS linker, the Leu kept from CH1 and the first two Arg of the StARD1 peptide; the stretch that was traced in the groove; also called cross-patching peptide of pCH3; source: E. coli, as part of the C-terminal tail of chimera pCH3, phosphorylated by co-expressed PKA
B1: binds [1].

B2: 14-3-3σ Clu3 – HSPB6 phosphopeptide chimera, phosphorylated (pCH1) (other)
chain: GPHMERASLIQKAKLAEQAERYEDMAAFMKGAVEKGEELSCEERNLLSVAYKNVVGGQRAAWRVLSSIEQKSNEEGSAAAGPEVREYREKVETELQGVCDTVLGLLDSHLIKEAGDAESRVFYLKMKGDYYRYLAEVATGDDKKRIIDSARSAYQEAMDISKKEMPPTNPIRLGLALNFSVFHYEIANSPEEAISLAKTTFDEAMADLHTLSEDSYKDSTLIMQLLRDNLTLWTGSGSLRRASAPL
modifications: phosphoserine at Ser16 of the HSPB6 peptide (RRApS16APL)
notes: three extra residues left at the N terminus after 3C cleavage of the hexahistidine tag; 14-3-3σ, human, C-terminally truncated (14-3-3σ∆C, residues 1-231), surface-entropy reduction mutant Clu3; flexible linker; HSPB6 peptide RRAS16APL with the natural Leu that precedes it (the Leu is told in words; Dimer through the 14-3-3σ core; also called CH1 co-expressed with PKA; 14-3-3/HSPB6 chimera CH1; …)
B2 was tested, and the “stoichiometry N” value [2] was 2 and 4.

B3: Gli phosphopeptide (RRApS640DPAQA), as fused in pCH2 (peptide)
peptide: RRA[pS]DPAQA
notes: Gli peptide RRAS640DPAQA, said to be conserved in Gli1, Gli2 and Gli3; Tethered through GSGSL to Thr231 of 14-3-3σ Clu3; also called Gli1 phosphopeptide; Gli-derived phosphopeptide; source: E. coli, as the C-terminal part of chimera pCH2, phosphorylated by co-expressed PKA
B3: binds [3].

B4: 14-3-3σ Clu3 – Gli1 phosphopeptide chimera, phosphorylated (pCH2) (other)
chain: GPHMERASLIQKAKLAEQAERYEDMAAFMKGAVEKGEELSCEERNLLSVAYKNVVGGQRAAWRVLSSIEQKSNEEGSAAAGPEVREYREKVETELQGVCDTVLGLLDSHLIKEAGDAESRVFYLKMKGDYYRYLAEVATGDDKKRIIDSARSAYQEAMDISKKEMPPTNPIRLGLALNFSVFHYEIANSPEEAISLAKTTFDEAMADLHTLSEDSYKDSTLIMQLLRDNLTLWTGSGSLRRASDPAQA
modifications: phosphoserine at Ser640 of the Gli peptide
notes: three extra residues left at the N terminus after 3C cleavage of the hexahistidine tag; 14-3-3σ, human, C-terminally truncated (14-3-3σ∆C, residues 1-231), surface-entropy reduction mutant Clu3; Gli peptide RRAS640DPAQA, said to be conserved in Gli1, Gli2 and Gli3; the other grooves hold sulfate; also called 14-3-3σ fusion with Gli phosphopeptide; source: E. coli, co-expressed with His-tagged …
B4: binds [4].

B5: 14-3-3σ Clu3 – StARD1 phosphopeptide chimera, phosphorylated (pCH3) (other)
chain: B4 chain with A242S, D244L, P245L, A246G, Q247S, A248R
modifications: phosphoserine at the second Ser of the GSGS linker (-GSGpS-); phosphorylation status of the target and neighbouring serines (RRSSLLGSR) not known
notes: three extra residues left at the N terminus after 3C cleavage of the hexahistidine tag; 14-3-3σ, human, C-terminally truncated (14-3-3σ∆C, residues 1-231), surface-entropy reduction mutant Clu3; StARD1 peptide around Ser57 (RRSS57LLGS); also called 14-3-3σ fusion with StARD1/BimEL phosphopeptide; source: E. coli, co-expressed with His-tagged catalytic subunit of mouse PKA, purified (subtractive …)
B5: binds [5].
